Source: PMC10320015, “Structural insights into CED-3 activation” (Life Science Alliance, 2023)
Values belong to the binder of their own block, whether it stands above or below them.

B1: CED-4 apoptosome (natural protein, C. elegans)
chain: MLCEIECRALSTAHTRLIHDFEPRDALTYLEGKNIFTEDHSELISKMSTRLERIANFLRIYRRQASELGPLIDFFNYNNQSHLADFLEDYIDFAINEPDLLRPVVIAPQFSRQMLDRKLLLGNVPKQMTCYIREYHVDRVIKKLDEMCDLDSFFLFLHGRAGSGKSVIASQALSKSDQLIGINYDSIVWLKDSGTAPKSTFDLFTDILLMLKSEDDLLNFPSVEHVTSVVLKRMICNALIDRPNTLFVFDDVVQEETIRWAQELRLRCLVTTRDVEISNAASQTCEFIEVTSLEIDECYDFLEAYGMPMPVGEKEEDVLNKTIELSSGNPATLMMFFKSCEPKTFEKMAQLNNKLESRGLVGVECITPYSYKSLAMALQRCVEVLSDEDRSALAFAVVMPPGVDIPVKLWSCVIPVDICSNEEEQLDDEVADRLKRLSKRGALLSGKRMPVLTFKIDHIIHMFLKHVVDAQTIANGISILEQRLLEIGNNNVSVPERHIPSHFQKFRRSSASEMYPKTTEETVIRPEDFPKFMQLHQKFYDSLKNFACC
notes: CED-4, C. elegans; also called CED-4b; CED-4c; source: recombinantly expressed, obtained as previously reported (Qi et al, 2010), purified (SEC)

Experiments:
[1] = biological target: the molecule itself; test: cryo-EM structure; holoenzyme: ternary complex of CED-4, CED-3 CARD and CED-3 catalytic domain, assembled at 4°C for 1 h, purified by SEC in 20 mM HEPES pH 7.5, 10 mM KCl, 1.5 mM MgCl2, 1 mM EDTA, 1 mM DTT; about 2 uM
[2] = biological target: the molecule itself; test: cryo-EM structure; CED-4 apoptosome alone (Apo dataset), low-salt sample, about 2 uM; 3D classification and refinement
[3] = biological target: the molecule itself; test: cryo-EM structure; CED-4/CED-3_CARD complex, assembled at 4°C for 1 h, purified by SEC in 20 mM HEPES pH 7.5, 10 mM KCl, 1.5 mM MgCl2, 1 mM EDTA, 1 mM DTT; about 2 uM
CED-4 apoptosome [4] = biological target: B1; test: cryo-EM structure; CED-4/CED-3 catalytic complex: CED-4 incubated with CED-3 (198-503, C358A), assembled at 4°C for 1 h, purified by SEC in 20 mM HEPES pH 7.5, 10 mM KCl, 1.5 mM MgCl2, 1 mM EDTA, 1 mM DTT; about 2 uM; details: both partners purified
CED-4 apoptosome [5] = biological target: B1; test: cryo-EM structure; CED-4/CED-3_CARD complex, assembled at 4°C for 1 h, purified by SEC in 20 mM HEPES pH 7.5, 10 mM KCl, 1.5 mM MgCl2, 1 mM EDTA, 1 mM DTT; about 2 uM; details: both partners purified

Binder: B1
stoichiometry N [1]: 6
stoichiometry N [2]: 7
stoichiometry N [3]: 8

binding result (CED-4 apoptosome [4]): binds
B2: CED-3 catalytic mutant (198–503, C358A) (domain or fragment, C. elegans, UniProt P42573 198-503, looked up)
chain: NRSFSKASGPTQYIFHEEDMNFVDAPTISRVFDEKTMYRNFSSPRGMCLIINNEHFEQMPTRNGTKADKDNLTNLFRCMGYTVICKDNLTGRGMLLTIRDFAKHESHGDSAILVILSHGEENVIIGVDDIPISTHEIYDLLNAANAPRLANKPKIVFVQAARGERRDNGFPVLDSVDGVPAFLRRGWDNRDGPLFNFLGCVRPQVQQVWRKKPSQADILIAYATTAQYVSWRNSARGSWFIQAVCEVFSTHAKDMDVVELLTEVNKKVACGFQTSQGSNILKQMPEMTSRLLKKFYFWPEARNSAV
notes: CED-3 catalytic domain, C. elegans, residues 198-503; also called CED-3 catalytic domain; catalytic mutant (C358A); source: expressed and purified as described previously (Huang et al, 2013)

stoichiometry N (CED-4 apoptosome [5]): 4 CED-3 CARDs per octameric CED-4 apoptosome
B3: WT CED-3 CARD (domain or fragment, C. elegans, UniProt P42573 1-91, looked up)
chain: MMRQDRRSLLERNIMMFSSHLKVDEILEVLIAKQVLNSDNGDMINSCGTVREKRREIVKAVQRRGDVAFDAFYDALRSTGHEGLAEVLEPL
notes: CED-3 CARD (caspase recruitment domain), C. elegans; source: E. coli BL21 (DE3), purified (Ni-NTA, Source-15Q anion exchange)
